Experimental data published in article PMC10090083, “Structural basis of impaired disaggregase function in the oxidation-sensitive SKD3 mutant causing 3-methylglutaconic aciduria” (Nature Communications, 2023).

Molecular target: the molecule itself
Experiment: not stated; oligomeric state of the isolated Ank domains in solution (Supplementary Fig. 1a, b); method not given

B1: Ank domain of human SKD3 isoform-1 (ANK_(iso1), residues 132-351) (domain or fragment, UniProt Q9H078 132-351, looked up)
chain: SNKDAALLEAARANNMQEVSRLLSEGADVNAKHRLGWTALMVAAINRNNSVVQVLLAAGADPNLGDDFSSVYKTAKEQGIHSLEDGGQDGASRHITNQWTSALEFRRWLGLPAGVLITREDDFNNRLNNRASFKGCTALHYAVLADDYRTVKELLDGGANPLQRNEMGHTPLDYAREGEVMKLLRTSEAKYQEKQRKREAEERRRFPLEQRLKEHIIGQE
notes: human SKD3 (CLPB) isoform-1, Ank domain construct, residues 132-351; TEV-cleavable tag; also called isolated Ank domain of SKD3; source: E. coli BL21-CodonPlus (DE3)-RIL, purified (IMAC, anion exchange, SEC); not shown: His6-SUMO, N-terminal, cleaved
stoichiometry N: 2
